Results: paper PMC7281375, “Therapeutic Targeting of Pancreatic Cancer via EphA2 Dimeric Agonistic Agents” (Pharmaceuticals, 2020)
Entries after “also recorded” stand apart in the source; their conditions may differ.

Experiments:
EphA2 receptor [1] = details: monomeric agents; cited from earlier work
Excerpt: In order to evaluate the ability of each agent to activate the receptor, we tested them in various cellular assays as reported below. Because receptor activation causes its internalization and degradation, we opted to monitor the ability of each agent to reduce EphA2 levels over time, after exposure of cells to test ligands. […] First, we wanted to explore the effect of the linker length between the monomers and therefore tested side by sid ...

EphA2 receptor [2] = test: EphA2 degradation, Western blot of BxPC3 cell lysates; type: cell-based; details: BxPC3 cells, 1 h, several concentrations
Procedure: In order to evaluate the ability of each agent to activate the receptor, we tested them in various cellular assays as reported below. Because receptor activation causes its internalization and degradation, we opted to monitor the ability of each agent to reduce EphA2 levels over time, after exposure of cells to test ligands. […] For these experiments we initially treated HCT116 cells with 10 μM concentration of each agent for 2.5 h, and cells lysates were probed for total EphA2 using anti-EphA2 antibody (1C11A12; Thermo Fisher Scientific) (Figure 3a). […] Because these agents had optimized side chains, we expected these to work at much lower concentrations compared to dimeric agents derived from 135B12 (Table 1).
Figure 3 Dimeric and tetrameric EphA2 agonistic ligands degrade EphA2 receptor. […] Total ERK1/2 blot was used as a loading control.
Figure 5 Pharmacological inhibition of EphA2 expression partially impairs migration of pancreatic cancer cells. […] (c) Western blot of BxPC3 cell lysates after exposure for 5 min, 1 h or 24 h to indicated agents. (d) Representative images from treated wells at times 0 and 30 h. **, p < 0.005; ***, p < 0.001. Error bars represent standard deviation. […]

EphA2-KO BxPC3 cells = test: Scratch wound cell migration assay (IncuCyte S3), EphA2-KO BxPC3; type: cell-based; details: EphA2-KO BxPC3, ephrinA1-Fc versus Fc
Excerpt: The monomeric, unbound EphA2 receptor is known to be pro-oncogenic, inducing cell migration of cancer cells, while ephrinA1-Fc, inducing EphA2 dimer formation can suppressed this activity. To more directly examine the effect EphA2 on pancreatic cancer cell migration we first prepared a stable BxPC3 EphA2 knockout (KO) cell line and monitored its migratory properties using the scratch wound method and live-cell analysis (IncuCyte S3, Sartorius) (Figure 4). Briefly, homogeneous scratch wounds on plated cells were created by a 96-pin mechanical device (WoundMaker, Sartorius, Göttingen, Germany). Subsequently, live-cell imaging was performed to monitor the rate of wound closure. As controls, we also tested wild-type (WT) BxPC3 cells, and each cell type was treated with ephrinA1-Fc, or Fc as control (Figure 4). […]
Cells were plated at 50 × 10^3 cells/well density in 96-well ImageLock plates (Sartorius). […] Plates were imaged every two hours using IncuCyte S3 (Sartorius), and relative wound areas were analyzed using the algorithm of the imager cell migration software module.

WT-BxPC3 cells = test: Scratch wound cell migration assay (IncuCyte S3), WT-BxPC3; type: cell-based
Excerpt: The monomeric, unbound EphA2 receptor is known to be pro-oncogenic, inducing cell migration of cancer cells, while ephrinA1-Fc, inducing EphA2 dimer formation can suppressed this activity. To more directly examine the effect EphA2 on pancreatic cancer cell migration we first prepared a stable BxPC3 EphA2 knockout (KO) cell line and monitored its migratory properties using the scratch wound method and live-cell analysis (IncuCyte S3, Sartorius) (Figure 4). Briefly, homogeneous scratch wounds on plated cells were created by a 96-pin mechanical device (WoundMaker, Sartorius, Göttingen, Germany). Subsequently, live-cell imaging was performed to monitor the rate of wound closure. As controls, we also tested wild-type (WT) BxPC3 cells, and each cell type was treated with ephrinA1-Fc, or Fc as control (Figure 4).
Cells were plated at 50 × 10^3 cells/well density in 96-well ImageLock plates (Sartorius). The following day, cells were scratched using the WoundMaker (Sartorius) and washed three times with PBS. Subsequently, cells were treated with the indicated compounds in RPMI-1640 complete media. […] Plates were imaged every two hours using IncuCyte S3 (Sartorius), and relative wound areas were analyzed using the algorithm of the imager cell migration software module.

BxPC3 cells = test: Cell proliferation during migration study; type: cell-based; details: BxPC3, treatments of the migration assay
Excerpt: Subsequently, we probed the effect of the pharmacological inhibition of EphA2 by our dimeric agents on the migratory properties of WT-BxPC3 in a similar assay (Figure 5a). […] Of note is that cell proliferation was not affected by either treatment with ephrinA1-Fc or by our agents.

EphA2 receptor [3] = test: EphA2 degradation, Western blot of HCT116 cell lysates; type: cell-based; details: HCT116 cells, ephrinA1-Fc 1 μg/mL, 2.5 h

## COc1ccc(C[C@H](NC(=O)[C@H](C)NC(=O)[C@H](CC(C)C)NC(=O)c2oc3c(OC)c(OC)ccc3c2C)C(=O)N2CCC[C@H]2C(=O)N[C@@H](CC(=O)O)C(=O)N[C@@H](C)C(=O)N[C@H](C(=O)N2C[C@H](O)C[C@H]2C(=O)N[C@@H](Cc2ccc(Cl)cc2)C(=O)N[C@@H](CCCNC(=N)N)C(=O)N2CCC[C@H]2C(N)=O)C(C)C)cc1 [135H11]
EphA2 receptor [1]
  concentration at which receptor activation was shown: ≥ 100 µM

## COc1ccc(C[C@H](NC(=O)[C@H](C)NC(=O)[C@H](CC(C)C)NC(=O)c2oc3c(OC)c(OC)ccc3c2C)C(=O)N2CCC[C@H]2C(=O)N[C@@H](CC(=O)O)C(=O)N[C@@H](C)C(=O)N[C@H](C(=O)N2C[C@H](O)C[C@H]2C(=O)N[C@@H](Cc2ccc(Cl)cc2)C(=O)N[C@@H](CCCNC(=N)N)C(=O)N2CCC[C@H]2C(=O)NCC(=O)NCCCC[C@H](NC(=O)CNC(=O)[C@@H]2CCCN2C(=O)[C@H](CCCNC(=N)N)NC(=O)[C@H](Cc2ccc(Cl)cc2)NC(=O)[C@@H]2C[C@@H](O)CN2C(=O)[C@@H](NC(=O)[C@H](C)NC(=O)[C@H](CC(=O)O)NC(=O)[C@@H]2CCCN2C(=O)[C@H](Cc2ccc(OC)cc2)NC(=O)[C@H](C)NC(=O)[C@H](CC(C)C)NC(=O)c2oc3c(OC)c(OC)ccc3c2C)C(C)C)C(=O)N[C@@H](CCCCN)C(=O)NCCCC[C@H](NC(=O)[C@H](CCCCN)NC(=O)[C@H](CCCCNC(=O)CNC(=O)[C@@H]2CCCN2C(=O)[C@H](CCCNC(=N)N)NC(=O)[C@H](Cc2ccc(Cl)cc2)NC(=O)[C@@H]2C[C@@H](O)CN2C(=O)[C@@H](NC(=O)[C@H](C)NC(=O)[C@H](CC(=O)O)NC(=O)[C@@H]2CCCN2C(=O)[C@H](Cc2ccc(OC)cc2)NC(=O)[C@H](C)NC(=O)[C@H](CC(C)C)NC(=O)c2oc3c(OC)c(OC)ccc3c2C)C(C)C)NC(=O)CNC(=O)[C@@H]2CCCN2C(=O)[C@H](CCCNC(=N)N)NC(=O)[C@H](Cc2ccc(Cl)cc2)NC(=O)[C@@H]2C[C@@H](O)CN2C(=O)[C@@H](NC(=O)[C@H](C)NC(=O)[C@H](CC(=O)O)NC(=O)[C@@H]2CCCN2C(=O)[C@H](Cc2ccc(OC)cc2)NC(=O)[C@H](C)NC(=O)[C@H](CC(C)C)NC(=O)c2oc3c(OC)c(OC)ccc3c2C)C(C)C)C(N)=O)C(C)C)cc1 [135I1]
EphA2 receptor [2]
  EphA2 degradation: not significantly more effective than its dimeric counterpart; also recorded: successfully degraded EphA2 receptor at nanomolar concentrations

B1: ephrinA1-Fc: dimeric natural ligand of EphA2, Fc dimerized ephrinA1 (protein)
chain: DRHTVFWNSSNPKFRNEDYTIHVQLNDYVDIICPHYEDHSVADAAMEQYILYLVEHEEYQLCQPQSKDQVRWQCNRPSAKHGPEKLSEKFQRFTPFTLGKEFKEGHSYYYISKPIHQHEDRCLRLKVTVSGKITHSPQAHDNPQEKRLAADDPEVRVLHSIGHS
modifications: left off: Fc, end not stated, kept
EphA2-KO BxPC3 cells
  cell migration, rate of migration over 36 h: did not significantly decrease the rate of migration
WT-BxPC3 cells; WT BxPC3, 1 μg/mL, versus Fc
  cell migration, relative wound density at 36 h: WT cells treated with Fc migrated significantly faster than WT cells treated with ephrinA1-Fc
WT-BxPC3 cells; WT-BxPC3, 1 µg/mL
  cell migration, relative wound density after 30 h: significant decrease of cell migration
BxPC3 cells
  cell proliferation: not affected
EphA2 receptor [3]
  total EphA2 level (anti-EphA2 blot): very effective in causing EphA2 degradation; also recorded: complete degradation of the receptor
